Assay results published in PMC9359980.

Key:
[1] = biological target: Photozipper (PZ), wild-type (Vaucheria frigida); assay: high-speed atomic force microscopy (HS-AFM); molecules on mica in Buffer-B (1 mM NaCl, 20 mM Tris-HCl pH 7, 1 mM DTT, 0.2 mM PMSF), room temperature, dark conditions (prepared under dim red light); 13-38 nM protein; dimer to monomers
[2] = biological target: Photozipper (PZ), wild-type (Vaucheria frigida); assay: high-speed atomic force microscopy (HS-AFM); molecules on mica in Buffer-B (1 mM NaCl, 20 mM Tris-HCl pH 7, 1 mM DTT, 0.2 mM PMSF), room temperature, blue light illumination (450 nm, about 4.3 mW/mm^2); 13-50 nM protein; dimer to monomers

Photozipper (PZ), wild-type (domain or fragment)
average dimer lifetime [1]: 8.1 s
stoichiometry N [1]: 2
average dimer lifetime [2]: 86 s
stoichiometry N [2]: 2
time constant of the dimerization rate (38 nM PZ, after the start of blue light) [2]: 255 s
